B1: PA-PB1-PB2(1-116) truncated heterotrimer (construct 15) (complex)
chain 1: […]
chain 2: MDVNPTLLFLKVPAQNAISTTFPYTGDPPYSHGTGTGYTMDTVNRTHQYSEKGKWTTNTETGAAQLNPIDGPLPEDNEPSGYAQTDCVLEAMAFLEESHPGIFENSCLETMEVVQQTRVDRLTQGRQTYDWTLNRNQPAATALANTIEVFRSNGLIANESGRLIDFLKDVIESMDKEEMEITTHFQRKRRVRDNMTKKMVTQRTIGKKKQRVNKRSYLIRALTLNTMTKDAERGKLKRRAIATPGMQIRGFVYFVETLARSICEKLEQSGLPVGGNEKKAKLANVVRKMMTNSQDTELSFTITGDNTKWNENQNPRMFLAMITYITKNQPEWFRNILSIAPIMFSNKMARLGKGYMFESKRMKLRTQIPAEMLASIDLKYFNESTRKKIEKIRPLLIDGTASLSPGMMMGMFNMLSTVLGVSILNLGQKKYTKTTYWWDGLQSSDDFALIVNAPNHEGIQAGVDRFYRTCKLVGINMSKKKSYINRTGTFEFTSFFYRYGFVANFSMELPSFGVSGINESADMSIGVTVIKNNMINNDLGPATAQMALQLFIKDYRYTYRCHRGDTQIQTRRSFELKKLWEQTRSKAGLLVSDGGPNLYNIRNLHIPEVCLKWELMDEDYQGRLCNPLNPFVSHKEIESVNNAVVMPAHGPAKSMEYDAVATTHSWIPKRNRSILNTSQRGILEDEQMYQKCCNLFEKFFPSSSYRRPVGISSMVEAMVSRARIDARIDFESGRIKKEEFSEIMKICSTIEELRRQK
chain 3: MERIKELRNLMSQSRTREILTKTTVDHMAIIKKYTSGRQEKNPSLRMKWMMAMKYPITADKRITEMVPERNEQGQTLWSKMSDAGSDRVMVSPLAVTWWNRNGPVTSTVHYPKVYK
notes: copies: + +
B2: PA-PB1-PB2(1-250) truncated heterotrimer (construct 16) (complex)
chain 1: […]
chain 2: MDVNPTLLFLKVPAQNAISTTFPYTGDPPYSHGTGTGYTMDTVNRTHQYSEKGKWTTNTETGAAQLNPIDGPLPEDNEPSGYAQTDCVLEAMAFLEESHPGIFENSCLETMEVVQQTRVDRLTQGRQTYDWTLNRNQPAATALANTIEVFRSNGLIANESGRLIDFLKDVIESMDKEEMEITTHFQRKRRVRDNMTKKMVTQRTIGKKKQRVNKRSYLIRALTLNTMTKDAERGKLKRRAIATPGMQIRGFVYFVETLARSICEKLEQSGLPVGGNEKKAKLANVVRKMMTNSQDTELSFTITGDNTKWNENQNPRMFLAMITYITKNQPEWFRNILSIAPIMFSNKMARLGKGYMFESKRMKLRTQIPAEMLASIDLKYFNESTRKKIEKIRPLLIDGTASLSPGMMMGMFNMLSTVLGVSILNLGQKKYTKTTYWWDGLQSSDDFALIVNAPNHEGIQAGVDRFYRTCKLVGINMSKKKSYINRTGTFEFTSFFYRYGFVANFSMELPSFGVSGINESADMSIGVTVIKNNMINNDLGPATAQMALQLFIKDYRYTYRCHRGDTQIQTRRSFELKKLWEQTRSKAGLLVSDGGPNLYNIRNLHIPEVCLKWELMDEDYQGRLCNPLNPFVSHKEIESVNNAVVMPAHGPAKSMEYDAVATTHSWIPKRNRSILNTSQRGILEDEQMYQKCCNLFEKFFPSSSYRRPVGISSMVEAMVSRARIDARIDFESGRIKKEEFSEIMKICSTIEELRRQK
chain 3: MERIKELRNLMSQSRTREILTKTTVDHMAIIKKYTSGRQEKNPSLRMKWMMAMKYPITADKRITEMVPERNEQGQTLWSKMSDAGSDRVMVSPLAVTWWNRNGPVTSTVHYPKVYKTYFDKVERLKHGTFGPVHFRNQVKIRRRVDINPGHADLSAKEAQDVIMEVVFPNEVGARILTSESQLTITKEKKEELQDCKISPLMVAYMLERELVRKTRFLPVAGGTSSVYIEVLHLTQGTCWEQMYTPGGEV
notes: copies: + +

Target: the molecule itself
Assay: SEC-MALS

| Protein | stoichiometry N |
| --- | --- |
| B1 | 2 |
| B2 | 2 |

— PMC4837377 (Scientific Reports, 2016)
